This data set in a line: protein stability index of a GFP-peptide fusion (GPS, HEK-293T) (PSI 1-6); higher = more stable.
Setting [1] is: treatment: DMSO, c terminus: a fixed tail appended.
[2] abbreviates: treatment: MLN4924 1 uM, 8 h, c terminus: a fixed tail appended.
The mark [3] stands for this setting: treatment: DMSO, c terminus: native.
[4] abbreviates: treatment: MLN4924 1 uM, 8 h, c terminus: native.

± gives the standard deviation.
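Further: 24-mer peptide tiles fused after GFP, lentivirally expressed, FACS-sorted into six equal bins by GFP/DsRed ratio, decoded by Illumina sequencing, PSI is the read-weighted mean bin number.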

As for RGSETTYESSADIAGDEGTQIPAD [TAF7L], the protein stability index runs as follows: under setting [1], 5.58 ± 0.12; under setting [2], 5.62 ± 0.12.
As to RHLRSAHRRELESSGAGSSPPAAP [ZBED3], the protein stability index was determined as 5.09 ± 0.36 under setting [1] and 5.1 ± 0.28 under setting [2].
Taken in the same sequence, the figures for RHLTSRHQEAEMAQNAVRLHYGLP [CTNNB1] were 3.71 ± 0.14 and 3.73 ± 0.25.
For RIHSGEKPYGCVECGKAFSRSSIL [ZNF24], in that order: 2.24 ± 0.31 and 2.83 ± 0.23.
RIHSGKKPYACDECAKAFSRSAIL [ZNF396] gave a protein stability index under setting [1] of 2.31 ± 0.4 and a protein stability index under setting [2] of 2.38 ± 0.33.
Taken in the same sequence, the figures for RKHALERFEQEAVAVDSNLRVREL [CCDC89] were 4.21 ± 0.12 and 4.47 ± 0.21.
For RLFLVEDLVDSLKLAVFMWLMTYV [RTN3], in that order: 2.72 ± 0.65 and 2.64 ± 0.78.
For RLIKELAKYEYMEEQVILTEKDLL [SAT1], in that order: 2.34 ± 0.34 and 2.18 ± 0.25.
Regarding RLRKHQHVGDFARDLAARWKKLVL [ELOA2], the protein stability index runs as follows: under setting [1], 2.23 ± 0.61; under setting [2], 2.54 ± 0.9.
Taken in the same sequence, the figures for RLVAPTEGSLEWDILEVKRLLDHQ [WDR41] were 2.67 ± 0.46 and 2.77 ± 0.29.
With RLVVQRCSGQKWMIRNWIKHARH [GALNT9], the protein stability index runs as follows: under setting [3], 3.21 ± 0.92; under setting [4], 2.69 ± 0.65.
On to RMEKGEPYMSIQPAEDPDDYDDGF [SMARCE1], for which the protein stability index reads like this: under setting [1], 5.61 ± 0.076; under setting [2], 5.54 ± 0.27.
For RNTHKDLLRFAQVFSQMIHLNETV [FEM1B], in that order: 2.74 ± 0.7 and 2.34 ± 0.48.
As for RPCVPPSCHGYTLPGACNIPANVS [KRT33B], the protein stability index is 2.79 ± 0.24 under setting [1] and 2.74 ± 0.17 under setting [2].
For RPEGYNLKDEEGKLKDLSTVTSLQ [PPP2R2C], in that order: 5.12 ± 0.23 and 5.29 ± 0.17.
With RPGETGMDVTSRCTLGDPNKLPEG [KLHL20], the protein stability index is, setting by setting: under setting [1], 5.16 ± 0.31; under setting [2], 5.11 ± 0.14.
For RPPGHHAQHSLMDGYCMFNHVAVA [HDAC6], in that order: 2.4 ± 0.43 and 2.27 ± 0.23.
For RQSSVTESTLYPNPYHQPYISRKY [TPRG1], in that order: 3.44 ± 0.31 and 3.67 ± 0.23.
Consider RRALAPPSAGFRCCAAPGPHVALA [ANKRD9], for which the protein stability index runs as follows: under setting [1], 1.98 ± 0.47; under setting [2], 2.25 ± 0.31.
On to RREKAVHRLRVQQAALRAARLRHQ [NOP53], for which the protein stability index by setting is: under setting [1], 3.6 ± 0.41; under setting [2], 3.71 ± 0.34.
Taken in the same sequence, the figures for RRLKTTRLKEYTIKSHSSLPPNNS [DAPK3] were 3.44 ± 0.3 and 3.61 ± 0.28.
For RRLQEVLGVQTGGPGGRRAGEPGH [DYRK1B], in that order: 4.12 ± 0.3 and 4.18 ± 0.26.
Taken in the same sequence, the figures for RRVLQGLEIELQSQLSMKASLENS [KRT16] were 2.8 ± 0.21 and 2.89 ± 0.4.
Consider RSFWELIGEAAKSVKLERPVRGH [S100A14], for which the protein stability index is 2.82 ± 0.81 under setting [3] and 2.65 ± 0.62 under setting [4].
The sequence RSGRLILWEAPPLGAGGGSLLPGA [NEK8] came in with a protein stability index under setting [1] of 2.84 ± 0.43 and a protein stability index under setting [2] of 3.11 ± 0.3.
Regarding RSNADYQYQLLRCNVDLLKIIQLG [CNOT7], the protein stability index under setting [1] was 2.61 ± 0.46 and the protein stability index under setting [2] is 2.51 ± 0.34.
Taken in the same sequence, the figures for RSSHSSDSGGSDVDLDPTDGKLFP [ELF3] were 5.34 ± 0.17 and 5.26 ± 0.32.
In the case of RSSLLACILLSALGYLLLGAATNV [MFSD9], the protein stability index turned out to be 2.9 ± 0.34 under setting [1] and 3.44 ± 0.26 under setting [2].
For RSVRRERLKEMKLLRDQFVKALED [FAM9B], in that order: 3.22 ± 0.27 and 3.05 ± 0.57.
With RTTRGLDPLFGMCEKFLQEVDFFQ [INTS4], the protein stability index under setting [1] is 2.05 ± 0.37 and the protein stability index under setting [2] came to 2.23 ± 0.26.
Taken in the same sequence, the figures for RVIACQKTAHDSNVLHVARLPNRQ [WDR41] were 3.52 ± 0.18 and 3.65 ± 0.27.
Turning to RYFSLSLMSGALAVNQKIDRESLC [PCDHGC5], the protein stability index runs as follows: under setting [1], 2.03 ± 0.21; under setting [2], 2.1 ± 0.28.
Taken in the same sequence, the figures for RYGRRTAIILSSCLLGLGSLVLIL [SLC2A12] were 5.23 ± 0.14 and 5.1 ± 0.14.
For SAAAATAELLKKQEELNRKAEELD [SCAMP3], in that order: 5.72 ± 0.16 and 5.52 ± 0.48.
Taken in the same sequence, the figures for SAALFYLTNSEYRSEQSVKLRRQV [ZER1] were 2.85 ± 0.57 and 2.83 ± 0.069.
Regarding SAGNAPLNEEINIASSDSEVEIVG [C18orf25], the protein stability index amounted to 5.27 ± 0.31 under setting [1] and 5.46 ± 0.19 under setting [2].
Taken in the same sequence, the figures for SAGVPPSAPLQGAVPPTSSVPPVA [SNAP91] were 4.79 ± 0.13 and 4.82 ± 0.15.
Taken in the same sequence, the figures for SAMLLVTLGKVLKVIVVMRSLFID [MED27] were 2.9 ± 0.45 and 2.85 ± 0.73.
In turn, SARIVQVVTAEAVAVLKGEQEKEA [MAP2] registered a protein stability index under setting [1] of 4.82 ± 0.11 and a protein stability index under setting [2] of 4.81 ± 0.21.
Taken in the same sequence, the figures for SAVEKEPARAPPEPPHNLFCAPGS [SERTAD3] were 4.95 ± 0.24 and 4.98 ± 0.078.
For SCLSSQSSALSQSGGGSTSAAGIE [SPACA3], in that order: 4.78 ± 0.13 and 4.82 ± 0.063.
Taken in the same sequence, the figures for SCSSDGGIAVWNMDVSREEAPQWL [WDFY1] were 3.07 ± 0.09 and 3.08 ± 0.23.
Consider SDAGSPSLHKHLTIRLNISDVNDN [PCDHGC5], for which the protein stability index is 3.73 ± 0.17 under setting [1] and 3.71 ± 0.24 under setting [2].
Taken in the same sequence, the figures for SDLSRSSRGELIPISPSTEVGGSG [MYBL2] were 5 ± 0.4 and 4.86 ± 0.34.
As for SEAQLTDAETSKLIYDFIEDQGGL [WAS], the protein stability index is 4.53 ± 0.38 under setting [1] and 4.62 ± 0.23 under setting [2].
Taken in the same sequence, the figures for SELDADHPGFKDNVYRKRRKYFAD [TPH1] were 4.13 ± 0.21 and 4.19 ± 0.2.
For the sequence SELGDYDPDECGSDYISEFRFAPN [EPB41L3], the protein stability index is, setting by setting: under setting [1], 2.22 ± 0.34; under setting [2], 3.12 ± 0.78.
Turning to SELTRLIQRIRSEIENVKKQASNL [KRT71], the protein stability index under setting [1] amounted to 2.09 ± 0.068 and the protein stability index under setting [2] was 2.22 ± 0.21.
SEPHYGHAGTVYGGVMYISGGITH [KLHL13] showed a protein stability index under setting [1] of 2.17 ± 0.47 and a protein stability index under setting [2] of 2.14 ± 0.17.
For SFCELHLKPHLEGAAFRDHQLLEP [TRIM29], the protein stability index reads like this: under setting [1], 2.87 ± 0.14; under setting [2], 2.93 ± 0.087.
Turning to SFINFFTSVLATLVVFAVLGFKAN [SLC6A17], the protein stability index runs as follows: under setting [1], 4.11 ± 0.85; under setting [2], 3.06 ± 0.36.
For SFTQEQVADIDGQYAMTRAQRVRA [CTNNB1], in that order: 4.62 ± 0.19 and 4.62 ± 0.14.
With SGCLPPEPLFEAGDATLASDLQDW [FOXJ1], the protein stability index by setting is: under setting [1], 4.82 ± 0.36; under setting [2], 4.74 ± 0.18.
As to SGCSSELKNRMEYALNMLLQRCN [PLK2], the protein stability index reads like this: under setting [3], 3.57 ± 0.15; under setting [4], 3.77 ± 0.12.
In the case of SGDCDQRFRFPSPILKVQYHPRDQ [RBBP5], the protein stability index runs as follows: under setting [1], 3.8 ± 0.19; under setting [2], 3.74 ± 0.27.
For SGEKPYKCSDCGKAFLTKTMLIVH [ZNF649], in that order: 3.52 ± 0.24 and 3.68 ± 0.35.
Taken in the same sequence, the figures for SGGSGGRGTGQLNRFVQLSGRPHL [KLHDC10] were 3.48 ± 0.28 and 3.65 ± 0.16.
For SGNFERCIRLWKYALDMQQSNLEP [FEM1A], in that order: 2.12 ± 0.12 and 2.38 ± 0.48.
Turning to SGRGTGRGGGGGGGGGAPRGRYGP [SRSF1], the protein stability index by setting is: under setting [1], 4.79 ± 0.24; under setting [2], 4.83 ± 0.15.
For SHKGAEELALALKGNTTLQQLDLR [LRRC45], in that order: 3.99 ± 0.18 and 4.17 ± 0.65.
For SIRLPLDAPLPGSKAKPKPPKQAQ [TBC1D10A], in that order: 4.36 ± 0.09 and 4.72 ± 0.11.
Consider SISRGRHARTHPQTALLESSCENK [MATN2], for which the protein stability index by setting is: under setting [1], 4.87 ± 0.22; under setting [2], 4.88 ± 0.27.
Taken in the same sequence, the figures for SKAFLLQTVDGKHQDLKYISPETM [CDC25B] were 3.22 ± 0.098 and 3.37 ± 0.29.
Taken in the same sequence, the figures for SKCQRLFRSPSMPCSVIRPILKRL [CDC25B] were 2.85 ± 0.2 and 2.65 ± 0.24.
Taken in the same sequence, the figures for SKGMSIFLDILRRADKNDDGKLSF [NECAB1] were 2.27 ± 0.12 and 2.33 ± 0.17.
Take SKLVPAIQNAHKNSTGSGRGKKLM [TPRG1]: the protein stability index runs as follows: under setting [1], 4.6 ± 0.24; under setting [2], 4.58 ± 0.16.
For SKYGRDWERYTAAVPYRLLPGIF [DHCR7], the protein stability index came out at 2.87 ± 0.4 under setting [3] and 2.57 ± 0.46 under setting [4].
For SLDSLDGLSLTDESDSCVSFEAPL [PSD2], the protein stability index reads like this: under setting [1], 4.95 ± 0.2; under setting [2], 4.86 ± 0.23.
For SLGKTNVKDDELDAMLKEASGPIN [MYL5], in that order: 5.14 ± 0.26 and 5.35 ± 0.16.
Taken in the same sequence, the figures for SLGYGFVNYSDPNDADKAINTLNG [ELAVL3] were 3.76 ± 0.22 and 3.98 ± 0.18.
For SLKDQERVAEVSRVRVELQEQNGR [LRRC45], the protein stability index worked out at 5.17 ± 0.45 under setting [1] and 4.91 ± 0.26 under setting [2].
For the sequence SLLFVVMFIPETKGCSLEQISMEL [SLC2A12], the protein stability index by setting is: under setting [1], 2.93 ± 0.53; under setting [2], 3.2 ± 0.13.

The values above are taken from the supplement of paper PMC10567573.
